{"source": "the DeepSol protein solubility set", "data": [{"assay": "soluble on expression in E. coli; label from the status in PepcDB or PDB records", "values": [{"sequence": "SRDGSVAPKERINIRYVPATGDTQEDVELPLSMMVVGDFTARADETPIEERTPINIDKDNFNDVLEGMSPNVKVNVENRLSDEEGAQIGVDLTFQNMKDFSPEAIAKSVPELNSLLELREALVALKGPLGNVPAFRKKIASVLQDEEARKKLLDELSIG", "soluble on expression in E. coli": "not soluble"}, {"sequence": "SRFADAVLDQYIGSIHSLCKDQHGCRFLQKQLDILGSKAADAIFEETKDYTVELMTDSFGNYLIQKLLEEVTTEQRIVLTKISSPHFVEISLNPHGTRALQKLIECIKTDEEAQIVVDSLRPYTVQLSKDLNGNHVIQKCLQRLKPENFQFIFDAISDSCIDIATHRHGCCVLQRCLDHGTTEQCDNLCDKLLALVDKLTLDPFGNYVVQYIITKEAEKNKYDYTHKIVHLLKPRAIELSIHKFGSNVIEKILKTAIVSEPMILEILNNGGETGIQSLLNDSYGNYVLQTALDISHKQNDYLYKRLSEIVAPLLVGPIRNTPHGKRIIGMLHLDS", "soluble on expression in E. coli": "soluble"}, {"sequence": "SSALPRTLGELQLYRVLQRANLLSYYETFIQQGGDDVQQLCEAGEEEFLEIMALVGMATKPLHVRRLQKALREWATNPGLFSQPVPAVPVSSIPLFKISETAG", "soluble on expression in E. coli": "soluble"}, {"sequence": "SSFVGENSGVKMGSEDWEKDEPQCCLEDPAVSPLEPGPSLPAMNFVHTSPKVKNLNPKKFSIHDQDHKVLVLDSGNLIAVPDKNYIRPEIFFALASSLSSASAEKGSPILLGVSKGEFCLYCDKDKGQSHPSLQLKKEKLMKLAAQKESARRPFIFYRAQVGSWNMLESAAHPGWFICTSCNCNEPVGVTDKFENRKHIEFSFQPVCKAEMSPSEVSD", "soluble on expression in E. coli": "soluble"}, {"sequence": "SSSSSSPAIEPDTPDLICQLDNVQGMVDALTCVRWKRHQDALVELSEHGIVLIVEESGCLQAKVYLQRELFTKYEYGAQGRPRFGISLGLLVDCLNTFSSPGHSNTIEIKYPGPDMELLLKSVDTLNSCIYSEIRTRIPETVTWDYNFEQAGIAPLTFTVKSAALKEAIDDLEWPGSSVQISLQKEPPCVIFRGEGHGDLQIDFMYYANTDLLLAFHCDTEVSYGYKYKFLKATTANIPGNVVRENRRSKLTIGRGGMLKVQHLVSVSKALAPQVESAGYQPPSRIAYIEFFVKPEEPAD", "soluble on expression in E. coli": "soluble"}, {"sequence": "STGSKQRSQNRSKTPKNQEALRMANVAENSSSDQRQACKKHELYVSFRDLGWQDWIIAPEGYAAYYCEGECAFPLNSYMNATNHAIVQTLVHFINPETVPKPCCAPTQLNAISVLYFDDSSNVILKKYRNMVVRACGCH", "soluble on expression in E. coli": "soluble"}, {"sequence": "STNLRAWLYQGDHCLESRQSEAGVTRLNGKSPAAVLAEVTTDWREENTPVVMAGMVGSNVGWKVAPYLSVPARFSSIGEQLTSVGDNIWIIPGLCVSHDDNHNVMRGEETQLIGARALAPSSLYVMPGTHCKWVQADSQQINDFRTVMTGELHHLLLNHSLIGAGLPPQENSADAFAAGLERGLNAPAILPQLFEVRASHVLGTLPREQVSEFLSGLLIGAEVASMRDYVTHQHAITLVAGTSLTARYQQAFQAMGCDVAAVAGDTAFQAGIRSIAHAVAN", "soluble on expression in E. coli": "not soluble"}, {"sequence": "STSGANSSGSYLPSEIRSSKIDDNYLKELNEDLKLRKQELLEMLKPLEDKNNLLFQRLMSNLEEKQRSLQIMRQIMAGKGCEESSVMELLKEAEEMKQNLERKNKMLRKEMEMLWNKTFEAEELSDQQKAPQTKNKADLQDGKEKQQRKMEWVKYQEQNNILQNDFHGKVIELRIEALKNYQKANDLKLSLYLQQNFEPMQAFLNLPGSQGIRIV", "soluble on expression in E. coli": "soluble"}, {"sequence": "STVTQKNLFPYGDYLNSSQLHMEPDEVDTLREGEDPADRMHPYLAIYDLQPLKAHPLVFAPGVPVIAQVVGTERYTSGSKVGTCTLYSVRLTHGDFTWTTKKKFRHFQELHRDLQRHKVLMSLLPLARFAVTHSPAREAAAEDIPSLPRGGSEGSARHTASKQKYLENYLNRLLTMSFYRNYHAMTEFLEVSQLSFIPDLGSKGLEGVIRKRSGGHRVPGFTFCGRDQVCYRWSKRWLVVKDSFLLYMRPETGAISFVQLFDPGFEVQVGKRSTETRYGVRIDTSHRSLILKCSSYRQARWWGQEITELAQGSGRDFLQLHQHDSYAPPRPGTLARW", "soluble on expression in E. coli": "soluble"}, {"sequence": "SVGGGGSGGGLLENANPLIYERSGERPVTAGEEDEEVPDSIDAREIFDLIRSINDPEHPLTLEELNVVEQVRIQVSDPESTVAVAFTPTIPHCSMATLIGLSIKVKLLRSLPQRFKMDVHITPGTHASEHAVNKQLADKERVAAALENTHLLEVVNQCLSARS", "soluble on expression in E. coli": "soluble"}]}]}
